Tests used:
[1] = tested on: E. coli MG1655 ΔfadD lacZ::Ptrc-′tesA; assay: Decarbonylase expression in fatty aldehyde-producing E. coli strain expressing MSMEG_5739; format: cell-based; conditions: coexpressed with M. smegmatis carboxylic acid reductase MSMEG_5739
E. coli MG1655 = assay: Coexpression of decarbonylase and aldehyde-generating enzyme in E. coli, GC-MS of hydrocarbons; format: cell-based; conditions: for Production of Alkanes and Alkenes: alkane/alkene biosynthetic polypeptide coexpressed in E. coli with the aldehyde biosynthetic polypeptide of the same table row; for fatty aldehyde decarbonylase activity in E. coli: cotransformed with S. elongatus PCC7942_1594 into E. coli MG1655, M9 minimal media, 37° C.
Source text: Seven cyanobacteria, whose complete genome sequences are publicly available, were selected for verification and/or detection of alkane biosynthesis: Synechococcus elongatus PCC7942, Synechococcus elongatus PCC6301, Anabaena variabilis ATCC29413, Synechocystis sp. PCC6803, Nostoc punctiforme PCC73102, Gloeobacter violaceus ATCC 29082, and Prochlorococcus marinus CCMP1986. Only the first three cyanobacterial strains from this list had previously been reported to contain alkanes (Han et al., J. Am. Chem. Soc. 91:5156-5159 (1969); Fehler et al., Biochem. 9:418-422 (1970)). The strains were grown photoautotrophically in shake flasks in 100 mL of the appropriate media (listed in Table 8) for 3-7 days at 30° C. at a light intensity of approximately 3,500 lux. Cells were extracted for alkane detection as follows: cells from 1 mL culture volume were centrifuged for 1 min at 13,000 rpm, the cell pellets were resuspended in methanol, vortexed for 1 min and then sonicated for 30 min. After centrifugation for 3 min at 13,000 rpm, the supernatants were transferred to fresh vials and analyzed by GC-MS. The samples were analyzed on either 30 m DP-5 capillary column (0.25 mm internal diameter) or a 30 m high temperature DP-5 capillary column (0.25 mm internal diameter) using the following method.
After a 1 μL splitless injection (inlet temperature held at 300° C.) onto the GC/MS column, the oven was held at 100° C. for 3 mins. The temperature was ramped up to 320° C. at a rate of 20° C./min. The oven was held at 320° C. for an additional 5 min. The flow rate of the carrier gas helium was 1.3 mL/min. The MS quadrapole scanned from 50 to 550 m/z. Retention times and fragmentation patterns of product peaks were compared with authentic references to confirm peak identity.
The genomic DNA encoding Synechococcus elongatus PCC7942 orf1594 (YP_400611; putative aldehyde-generating enzyme) (SEQ ID NO:65) was amplified and cloned into the NcoI and EcoRI sites of vector OP-80 (pCL1920 derivative) under the control of the Ptrc promoter. The resulting construct (“OP80-PCC7942_1594”) was transformed into E. coli MG1655 and the cells were grown at 37° C. in M9 minimal media with 1% (w/v) glucose as carbon source and supplemented with 100 μg/mL spectinomycin. When the culture reached OD600 of 0.8-1.0, it was induced with 1 mM IPTG and cells were grown for an additional 18-20 h at 37° C. Cells from 0.5 mL of culture were extracted with 0.5 mL of ethyl acetate. After sonication for 60 min, the sample was centrifuged at 15,000 rpm for 5 min. The solvent layer was analyzed by GC-MS as described in Example 1.
The genomic DNA encoding Synechococcus elongatus PCC7942 orf1593 (YP_400610; putative decarbonylase) (SEQ ID NO:1) was amplified and cloned into the NdeI and XhoI sites of vector OP-183 (pACYC derivative) under the control of the Ptrc promoter. The resulting construct was cotransformed with OP80-PCC7942_1594 into E. coli MG1655 and the cells were grown at 37° C. in M9 minimal media supplemented with 100 μg/mL spectinomycin and 100 μg/mL carbenicillin. The cells were cultured and extracted as in Example 3 and analyzed by GC-MS as described in Example 1. […]

B1: SEQ ID NO: 19: Prochlorococcus marinus CCMP1986 PMM0532, putative decarbonylase (protein, listed as Prochlorococcus marinus)
chain: MQTLESNKKTNLENSIDLPDFTTDSYKDAYSRINAIVIEGEQEAHDNYISLATLIPNELEELTKLAKMELKHKRGFTACGRNLGVQADMIFAKEFFSKLHGNFQVALSNGKTTTCLLIQAILIEAFAISAYHVYIRVADPFAKKITQGVVKDEYLHLNYGQEWLKENLATCKDELMEANKVNLPLIKKMLDQVSEDASVLAMDREELMEEFMIAYQDTLLEIGLDNREIARMAMAAIV
conversion of fatty aldehydes provided by MSMEG_5739 to alkanes [1]: converted fatty aldehydes provided by MSMEG_5739 to the corresponding alkanes
Production of Alkanes and Alkenes (E. coli MG1655): yes
fatty aldehyde decarbonylase activity in E. coli (E. coli MG1655): active fatty aldehyde decarbonylase

B2: SEQ ID NO: 52: Synechococcus sp. RS9917 RS9917_09941, putative decarbonylase, codon optimized for E. coli (protein, listed as Synechococcus sp.)
chain: MPTLETSEVAVLEDSMASGSRLPDFTSEAYKDAYSRINAIVIEGEQEAHDNYIALGTLIPEQKDELARLARMEMKHMKGFTSCGRNLGVEADLPFAKEFFAPLHGNFQAALQEGKVVTCLLIQALLIEAFAISAYHIYIPVADPFARKITEGVVKDEYTHLNYGQEWLKANFEASKDELMEANKANLPLIRSMLEQVAADAAVLQMEKEDLIEDFLIAYQEALCEIGFSSRDIARMAAAALAV
conversion of fatty aldehydes provided by MSMEG_5739 to alkanes [1]: converted fatty aldehydes provided by MSMEG_5739 to the corresponding alkanes
Production of Alkanes and Alkenes (E. coli MG1655): yes
fatty aldehyde decarbonylase activity in E. coli (E. coli MG1655): active fatty aldehyde decarbonylase

B3: SEQ ID NO: 53: Synechococcus sp. RS9917 RS9917_12945, putative decarbonylase, codon optimized for E. coli (protein, listed as Synechococcus sp.)
chain: MTQLDFASAAYREAYSRINGVVIVGEGLANRHFQMLARRIPADRDELQRLGRMEGDHASAFVGCGRNLGVVADLPLARRLFQPLHDLFKRHDHDGNRAECLVIQGLIVECFAVAAYRHYLPVADAYARPITAAVMNDESEHLDYAETWLQRHFDQVKARVSAVVVEALPLTLAMLQSLAADMRQIGMDPVETLASFSELFREALESVGFEAVEARRLLMRAAARMV
conversion of fatty aldehydes provided by MSMEG_5739 to alkanes [1]: converted fatty aldehydes provided by MSMEG_5739 to the corresponding alkanes
Production of Alkanes and Alkenes (E. coli MG1655): yes
fatty aldehyde decarbonylase activity in E. coli (E. coli MG1655): active fatty aldehyde decarbonylase

From US9481899B2, “Methods and compositions for producing hydrocarbons” (priority 2008, dated 2016)
